The source of these data is patent US20200102398A1 (Amgen, published 2020).

First the molecules themselves.
B2: sBCMA-mAb1 (antibody, V domains shown)
VH: QSLEESGGDLVKPGAFLTLTCTASGFSFSSGYYICWVRQAPGKGLEWIACIYTGSSGSTDYASWAKGRFTISKTSSTTVTLQMTSLTAADTATYFCARDYGHSYWNLWGPGTLVTVSS
VL: DIVMTQTPASVEAAVGGTVTIKCQASEDISSRLAWYQQKPGQPPKLLIGAASTLASGVSSRFKGSRSGTEYTLTISDLECADAATYYCLGDYYVSSYGNAFGGGTEVVVKG
notes: Rabbit monoclonal IgG, used as purified recombinant antibody; also called rabbit monoclonal anti-sBCMA antibody sBCMA-mAb1; sBCMA-mAbl

For the experiment “sBCMA-mAb1”, the target named is B2. The experiment in a line: Octet: sBCMA-mAb3 on captured sBCMA-mAb1 without BCMA (sensor blocked with irrelevant IgG).
The target of another experiment is T1, soluble BCMA (sBCMA) (human, UniProt Q02223 1-54).
T1 construct: also called BCMA ECD; Biotinylated BCMA
T1 sequence: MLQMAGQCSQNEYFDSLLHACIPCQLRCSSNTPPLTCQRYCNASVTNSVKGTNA
The experiment in a line: SPR (Biacore 3000, 25 C); mAb captured on goat anti-rabbit IgG Fc, sBCMA as analyte; 1:1 Langmuir with mass transfer. On the procedure: Experiments were performed using a Biacore 3000 (GE Healthcare) at 25° C. The running buffer was HBS-P (10 mM HEPES, pH7.4, 150 mM NaCl, 0.05% Surfactant P-20)+0.1% BSA, and kinetics were performed at a high flowrate (100 μl/min). 10 mM Glycine, pH 1.7 was used for regeneration.
Surface preparation: A goat anti-rabbit IgG Fc (Prod. #111-005-046 from Jackson Research) was diluted 1/20 in NaAcetate, pH 5 and covalently coupled to the sample and reference Fc (Fc 1) of a CMS sensor chip using amine coupling. Individual mAbs were diluted in HBS-P+0.1% BSA and captured on either Fc 2, 3, or 4 at 0.3 μg/ml for kinetic analysis of binding to sBCMA.
Interaction Parameters: sBCMA (1.19 mg/ml stock) was injected as analyte at 600 nM, 300 nM, 150 nM, 75 nM, 37.5 nM, 18.8 nM, and 9.4 nM with the 75 nM concentrated run twice to gage reproducibility. The association rate was monitored for 2.5 minutes. The dissociation time was 20 minutes to determine more accurate kinetics for those mAbs with slower off-rates. The data was double background referenced in that both a reference Fc and a 0 nM analyte concentration were subtracted from the data. A 1:1 Langmuir binding model with mass transfer was used from the Biacore evaluation software.

B1: sBCMA-mAb3 (antibody, V domains shown)
VH: QEQLEESGGGLVKPGGTLTLTCKASGMDFSSYYYMCWVRQAPGKGLEWIACIFSDSGGHTAYASWAEGRFTISKTSSTTVTLQMTSLTVADTATYFCARDRRDVVYIRDLWGPGTLVTVSS
VL: ALVMTQTPSPVSAAVGGTVTISCQSSESVYNNNALAWYQQKPGQPPKLLIYGASSLASGVPSRFKGSGSGTQFTLTISDLECDDAATYYCAGYKRYNNDGHAFGGGTEVVVKG
notes: Rabbit monoclonal IgG; also called rabbit monoclonal anti-sBCMA-mAb3
With B1, the binding result with sBCMA-mAb1 is given as “no binding (tested: not given)”. For the same molecule, in the experiment with soluble BCMA (sBCMA), the Kd (in general, the equilibrium constant for the complex coming apart) was 4.5 nM; the off-rate constant (koff) (usually the first-order rate constant of dissociation) was 0.00405 s⁻¹; the on-rate (kon) – broadly, the rate constant with which the complex forms – is 901000 M⁻¹ s⁻¹.
For B2, in the experiment with soluble BCMA (sBCMA), the Kd worked out at 0.103 nM, the koff came to 6.47e-05 s⁻¹ and the kon was found to be 630000 M⁻¹ s⁻¹.

B3: sBCMA-mAb2 (antibody, V domains shown)
VH: QSLEESGGDLVKPGASLTLTCTASGFSFSSSYWICWVRQAPGKGLEWIACIYAGSGDFTYYASWAKGRFTVSKTSSTTVTLQMTSLTAADTATYFCARDAATSYYSHYFTLWGPGTLVTVSS
VL: DVVMTQTPASVSEPVGGTVTIKCQASQSIYSGLAWYQQKPGQPPKLLIYDASDLASGVPSRFSGSGYGTEFTLTISGVQCEDAATYYCQVTHYESGVPLGGGTEVVVEG
notes: Rabbit monoclonal IgG; also called rabbit monoclonal anti-sBCMA antibody sBCMA-mAb2
In the experiment with soluble BCMA (sBCMA), B3 came in with a Kd of 377 nM, a koff of 0.0185 s⁻¹ and a kon of 49200 M⁻¹ s⁻¹.
